Publication PMC9237115, “Hsp multichaperone complex buffers pathologically modified Tau” (Nature Communications, 2022)

Target: T1, Full-length human Tau (MAPT) (human, UniProt P10636-8 1-441)
T1 construct: Tau (MAPT), human, full length; 15N-labelled for the HSQC NMR experiments; also called unmodified Tau; source: E. coli BL21 (DE3), pNG2 vector, purified (boiling, ammonium sulfate, cation exchange, gel filtration)
Experiment: NMR titration; 2D 1H-15N HSQC of 24 µM 15N-labelled Tau (or PTau^Cdk2), 5 °C, 25 mM HEPES pH 7.4/100 mM KCl/5 mM MgCl2/1 mM TCEP; chaperones added
Details: both partners purified

T1 sequence (P10636 other isoform, or with tags, fused parts or gaps): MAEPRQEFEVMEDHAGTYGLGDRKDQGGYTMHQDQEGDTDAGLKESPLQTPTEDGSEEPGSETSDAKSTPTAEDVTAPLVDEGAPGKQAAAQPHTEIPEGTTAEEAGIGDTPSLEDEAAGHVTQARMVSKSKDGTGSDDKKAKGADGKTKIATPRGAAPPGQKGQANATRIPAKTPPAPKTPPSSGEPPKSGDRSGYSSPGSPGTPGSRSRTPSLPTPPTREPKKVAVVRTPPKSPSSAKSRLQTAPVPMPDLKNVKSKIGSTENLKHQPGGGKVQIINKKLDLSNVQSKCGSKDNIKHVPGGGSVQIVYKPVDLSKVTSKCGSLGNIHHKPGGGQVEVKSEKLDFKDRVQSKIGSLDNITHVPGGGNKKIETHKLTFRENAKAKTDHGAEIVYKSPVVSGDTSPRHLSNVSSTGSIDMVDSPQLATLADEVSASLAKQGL

B1: p23 (PTGES3) (natural protein, human, UniProt Q15185 1-160, looked up)
chain: MQPASAKWYDRRDYVFIEFCVEDSKDVNVNFEKSKLTFSCLGGSDNFKHLNEIDLFHCIDPNDSKHKRTDRSILCCLRKGESGQSWPRLTKERAKLNWLSVDFNNWKDWEDDSDEDMSNFDRFSEMMNNMGGDEDVDLPEVDGADDDSQDSDDEKMPDLE
notes: p23 (PTGES3), human, full-length DNA in pET28a; source: E. coli Rosetta 2 (DE3), purified (Ni-NTA, thrombin cleavage, SEC); not shown: His6, N-terminal, cleaved
B1: binds.
